Measurements taken from publication doi:10.1101/655696.

Columns and labels:
[1] = molecular target: mature 30S ribosomal subunit (MRE600) (E. coli (endogenous in MRE600)) (UniProt P0AG67); assay: co-sedimentation
[2] = molecular target: mature 30S ribosomal subunit (MRE600) (E. coli (endogenous in MRE600)) (UniProt P0AG67); assay: ultrafiltration assay
[3] = molecular target: pre-30S particles from the ΔrbfA strain (BX41) (E. coli (endogenous in BX41)); assay: ultrafiltration assay
[4] = molecular target: mature 30S ribosomal subunit (MRE600) (E. coli (endogenous in MRE600)) (UniProt P0AG67); assay: co-sedimentation + other: ultrafiltration assay

Q: Which decrease of Cy5-RbfA fluorescence in the pelleted fraction with 4 µM IF3 [1] does the source give for “Initiation factor 3 (IF3), wild type (from UniProt P0A707 1-180) (natural protein)” here?
A: Its decrease of Cy5-RbfA fluorescence in the pelleted fraction with 4 µM IF3 is greater than 80%.

Q: With “Cy3-IF3 (from UniProt P0A707 1-180) (natural protein)” as the substance, how does the average fold change in bound IF3 over background [2] read?
A: Its average fold change in bound IF3 over background is 2.2 fold.

Q: And the average fold change in bound IF3 over background [3]?
A: Its average fold change in bound IF3 over background is 1.9 fold.

Q: “Cy5-RbfA (ribosome binding factor A labelled with Cy5 at position 2) (from UniProt P0A7G2 1-133) (natural protein)” was tested. Which t1/2 of the complex [4] did it give?
A: Its t1/2 of the complex is greater than 30 min.

Q: And the half-life of the complex [3]?
A: Its half-life of the complex is greater than 60 min.
